The series can be described thus: soluble on expression in E. coli; label from the status in PepcDB or PDB records.
As for “MNEAEHSVEHPPVQGSHVEGGVVEHPDAKDFGSAAALPADPTWFKHAVFYEVLVRAFFDASADGSGDLRGLIDRLDYLQWLGIDCIWLPPFYDSPLRDGGYDIRDFYKVLPEFGTVDDFVALVDAAHRRGIRIITDLVMNHTSESHPWFQESRRDPDGPYGDYYVWSDTSERYTDARIIFVDTEESNWSFDPVRRQFYWHRFFSHQPDLNYDNPAVQEAMIDVIRFWLGLGIDGFRLDAVPYLFEREGTNCENLPETHAFLKRVRKVVDDEFPGRVLLAEANQWPGDVVEYFGDPNTGGDECHMAFHFPLMPRIFMAVRRESRFPISEIIAQTPPIPDMAQWGIFLRNHDELTLEMVTDEERDYMYAEYAKDPRMKANVGIRRRLAPLLDNDRNQIELFTALLLSLPGSPVLYYGDEIGMGDVIWLGDRDGVRIPMQWTPDRNAGFSTANPGRLYLPPSQDPVYGYQAVNVEAQRDTSTSLLNFTRTMLAVRRRHPAFAVGAFQELGGSNPSVLAYVRQVAGDDGDTVLCVNNLSRFPQPIELDLQQWTNYTPVELTGHVEFPRIGQVPYLLTLPGHGFYWFQLTTHEVGAPPTCGGERRL”, the “soluble on expression in E. coli” value was “soluble”. Regarding “MLAYPHLFTPLDLGFTTLKNRILMGSMHTGLEELPDGPQRLAAFYAERAAGGVGLIVTGGIAPNMKGGVYQGASVLNDAAQIPHHQVVTEAVHQAGGKIALQILHAGRYSYQKHPVAPSALQAPINPFVPQALSHEEILQTIADFAHCAQLAKQAGYDGVEIMGSEGYLINQFLTARTNQRDDEWGGDFTHRMRFAVEIVRAVRQATGHDFILIYRLSMLDLVEEGSNWVEIEQLAQAVEQAGATVINTGIGWHEARIPTIATMVPRAGFSWVTRKLMGKVNIPLITTNRINDPAVAEQVLADGCADMVSMARPFLADAAFVQKAAQGRADEINTCIGCNQACLDQIFDGKLTSCLVNPRACRETEMPELPTDAPKRLAVVGAGPAGLAFAVTAARRGHQVTLFDAAAEIGGQFNIAKQIPGKEEFYETLRYFRRQLVLNGVTLQLNTLVQVKQLAEFDEVILACGIQPRLPCINGIDHPKVLTYLDVLRDKKPVGQRVAIIGAGGIGFDTAEYLSQSGDSPRFDSTAFSTEWGIDQDLAHRGGLSPAGAKVPPSPRQIFLLQRKASKVGEGLGKTTGWIHRTSLAMRGVKMLNSVSYEAIDDKGLHIIRAEQACCLPVDTIIICAGQEPRRELHQPLLDMGKTVYLIGGADKAVELDARRAIDQGTRLALAI”, the “soluble on expression in E. coli” value was “not soluble”. In the case of “MAQLYFYYSAMNAGKSTALLQSSYNYQERGMRTVVYTAEIDDRFGAGKVSSRIGLSSPAKLFNQNTSLFEEIRAESARQTIHCVLVDESQFLTRQQVYQLSEVVDKLDIPVLCYGLRTDFRGELFVGSQYLLAWSDKLVELKTICFCGRKASMVLRLDQDGRPYNEGEQVVIGGNERYVSVCRKHYKDALEEGSLTAIQERHRHILEHHHHHH” it was “soluble”; in that of “MSLTARVIALDLDGTLLTPHKTLLPSSLDALSRAKEAGFQLIIVTGRHHVAIHPFYQALALETPAICCNGTYLYDYQAKTVLDADPMPVDKALQLIDLLDEHQIHGLMYVDDAMLYEHPTGHVVRTSRWAQTLPPEQRPTFAQVSSLAQAARDVNAVWKFALTDEDIPKLQRFGQHVEQALGLECEWSWHDQVDIARKGNSKGKRLTQWIEAQGGSMKNVIAFGDNYNDISMLEAAGTGVAMGNADEAVKARADVVIGDNTTDSIAKFIYTHLLEGHHHHHH”, “soluble”. In the case of “MGSDKIHHHHHHMKLITVSGPPSSGKTSLIIKTVESLKAQNIKVGIVKFDCLYTDDDILYEKAGILVKKGLSGSVCPDHFFASNIEEVVQWGKTNNLDLLITESAGLCNRCSPYLKDIKAVCVIDNLSGINTPKKIGPMLKLADIVVITKGDIVSQAEREVFASRVQTVNPKAAIIHINGLTGQGTYEFGSLIMDKNEEIDTVIERKLRFPLPSAVCSYCLGETRIGNNYQLGNIRKINFEEQ” it was “not soluble”.

Regarding “MNFSGKYQVQSQENFEPFMKAMGLPEDLIQKGKDIKGVSEIVHEGKKVKLTITYGSKVIHNEFTLGEECELETMTGEKVKAVVKMEGDNKMVTTFKGIKSVTEFNGDTITNTMTLGDIVYKRVSKRI”, the “soluble on expression in E. coli” value was “soluble”.

For “SLEKELKVITIDELKKYIRNNEEDKIEEVDVVTSATCGIMSGTAGIFHIPFNEVFKRAEEIYLNDIKGVVGICPNEFLGKVDAIFYGEVGFLFKDLVKGKVVEAKAISEGKIYKNEITIDDLPTAKMIGTRMAFKNYTAITNLSDEEVNTIFHRLPLKKGEASFSGCGMLNPLENMVIKDEKDVVGKKALLNGAEAIILGFGTRASIEKPNLMMSADMKDMDAYYLGGFVTSNGIEIYNTIAVPIKVDEHKEALKKLDKDITLPLVNIFGREIIDIGSYAEVWENVDLRPKIYQDKCKNCRECLVEKYCPTFAIKRENGKIKITEDCFGCGVCNICPYGVFKTKLGSVCGIPITCRQSDRKRALKLAKELKKKIERGEFKI”, the “soluble on expression in E. coli” value is “not soluble”. For “MVFDAIVVTDLQGFIIDWNKGSETLYGYSKEQAIGQPVNMLHVPGDTEHITSEVISAVENQGKWTGEIRMLHKDGHIGWIESMCVPIYGENYQMVGALGINRDITKRKKELEHHHHHH” the value was “not soluble”; for “MTDIDAIIIGAGVIGLATARELSMHGLSVIILESETEFGSATSSRNSEVIHAGLYYPAGSLKARLCVEGRQRLYDFCESHGVAHRHCGKLIVATSDDETPLLVALGAKGKANGCDDLELIDQRHALSLEPALACSSALLSPSTGIIDSHGYMLALLGEAQDHGAALALNAPFERAEAIGDGFRVHVGGKEPVSLTCRLLVNSAGLVAPMVAAMIEGLPSVAIPQARFAKGSYFSLTGKSPFSRLIYPAPHTHGLGVHLTLDLAGQARFGPDVEWVDTIDYAVDPRRMEGFGDAIRRYWPGLPEHTLAPAYSGIRPKISGPDEPAMDFRIDGPETHGFPGLVNLFGIESPGLTASLAIAGEIAARLEALEHHHHHH”, “not soluble”; for “MVRVYIGRFPNRASDRDAEHFFCDYGKLPDAIMKNVFGVGCKDFQDQSDADDIICDEQTRILLVEKLKNAKEYPTINHD”, “not soluble”. In the case of “GPMELAHREYQAGDFEAAERHCMQLWRQEPDNTGVLLLLSSIHFQCRRLDRSAHFSTLAIKQNPLLAEAYSNLGNVYKERGQLQEAIEHYRHALRLKPDFIDGYINLAAALVAAGDMEGAVQAYVSALQYNPDLYCVRSDLGNLLKALGRLEEAKACYLKAIETQPNFAVAWSNLGCVFNAQGEIWLAIHHFEKAVTLDPNFLDAYINLGNVLKEARIFDRAVAAYLRALSLSPNHAVVHGNLACVYYEQGLIDLAIDTYRRAIELQPHFPDAYCNLANALKEKGSVAEAEDCYNTALRLCPTHADSLNNLANIKREQGNIEEAVRLYRKALEVFPEFAAAHSNLASVLQQQGKLQEALMHYKEAIRISPTFADAYSNMGNTLKEMQD” it was “soluble”; in that of “GAMGSKISNIFEDVEFCVMSGTDSQPKPDLENRIAEFGGYIVQNPGPDTYCVIAGSENIRVKNIILSNKHDVVKPAWLLECFKTKSFVPWQPRFMIHMCPSTKEHFAREYDCYGDSYFIDTDLNQLKEVFSGIKNSNEQTPEEMASLIADLEYRYSWDCSPLSMFRRHTVYLDSYAVINDLSTKNEGTRLAIKALELRFHGAKVVSCLAEGVSHVIIGEDHSRVADFKAFRRTFKRKFKILKESWVTDSIDKCELQEENQYLI”, “soluble”; in that of “MGSDKIHHHHHHTSEEREVFENQEGMHRLIPLIEAQTEEDLTPTMREYFAQIREYRKTPHVKGFGWFGNWTGKGNNAQNYLKMLPDSVDFVSLWGTRGYLSDEQKADLKFFQEVKGGKALLCWIIQDLGDQLTPKGLNATQYWVEEKGQGNFIEGVKAYANAICDSIEKYNLDGFDIDYEPGYGHSGTLANYQTISPSGNNKMQVFIETLSARLRPAGRMLVMDGQPDLLSTETSKLVDHYIYQAYWESSTSSVIYKINKPNLDDWERKTIITVEFEQGWKTGGITYYTSVRPELNSMEGNQILDYATLDLPSGKRIGGIGTYHMEYDYPNDPPYKWLRKALYFGNQVYPGKFD”, “not soluble”.

(Values after the DeepSol protein solubility set.)
